These results are taken from article PMC2570331.

Assay in all cases: split reporter (BiFC, NanoBiT); CFP 1-158 on the N-terminus of α12.2 (WT, Bdel1 or Bdel2), CFP 159-238 on the C-terminus of β3core; HEK-293 cells co-transfected with α2δ1 and an RFP (mCherry or DsRed-Monomer, pooled); median of the cyan/red ratio of single cells
The target in assay [1] is Bdel1 α12.2 tagged with the CFP 1–158 fragment (rat).
The target of assay [2] is Bdel2 α12.2 tagged with the CFP 1–158 fragment (rat).
Assay [3] concerns the target WT α12.2 tagged with the CFP 1–158 fragment (rat).

WT α12.2 tagged with the CFP 1–158 fragment (rat), sequence (Q02294 whole entry, the tested form may be a part): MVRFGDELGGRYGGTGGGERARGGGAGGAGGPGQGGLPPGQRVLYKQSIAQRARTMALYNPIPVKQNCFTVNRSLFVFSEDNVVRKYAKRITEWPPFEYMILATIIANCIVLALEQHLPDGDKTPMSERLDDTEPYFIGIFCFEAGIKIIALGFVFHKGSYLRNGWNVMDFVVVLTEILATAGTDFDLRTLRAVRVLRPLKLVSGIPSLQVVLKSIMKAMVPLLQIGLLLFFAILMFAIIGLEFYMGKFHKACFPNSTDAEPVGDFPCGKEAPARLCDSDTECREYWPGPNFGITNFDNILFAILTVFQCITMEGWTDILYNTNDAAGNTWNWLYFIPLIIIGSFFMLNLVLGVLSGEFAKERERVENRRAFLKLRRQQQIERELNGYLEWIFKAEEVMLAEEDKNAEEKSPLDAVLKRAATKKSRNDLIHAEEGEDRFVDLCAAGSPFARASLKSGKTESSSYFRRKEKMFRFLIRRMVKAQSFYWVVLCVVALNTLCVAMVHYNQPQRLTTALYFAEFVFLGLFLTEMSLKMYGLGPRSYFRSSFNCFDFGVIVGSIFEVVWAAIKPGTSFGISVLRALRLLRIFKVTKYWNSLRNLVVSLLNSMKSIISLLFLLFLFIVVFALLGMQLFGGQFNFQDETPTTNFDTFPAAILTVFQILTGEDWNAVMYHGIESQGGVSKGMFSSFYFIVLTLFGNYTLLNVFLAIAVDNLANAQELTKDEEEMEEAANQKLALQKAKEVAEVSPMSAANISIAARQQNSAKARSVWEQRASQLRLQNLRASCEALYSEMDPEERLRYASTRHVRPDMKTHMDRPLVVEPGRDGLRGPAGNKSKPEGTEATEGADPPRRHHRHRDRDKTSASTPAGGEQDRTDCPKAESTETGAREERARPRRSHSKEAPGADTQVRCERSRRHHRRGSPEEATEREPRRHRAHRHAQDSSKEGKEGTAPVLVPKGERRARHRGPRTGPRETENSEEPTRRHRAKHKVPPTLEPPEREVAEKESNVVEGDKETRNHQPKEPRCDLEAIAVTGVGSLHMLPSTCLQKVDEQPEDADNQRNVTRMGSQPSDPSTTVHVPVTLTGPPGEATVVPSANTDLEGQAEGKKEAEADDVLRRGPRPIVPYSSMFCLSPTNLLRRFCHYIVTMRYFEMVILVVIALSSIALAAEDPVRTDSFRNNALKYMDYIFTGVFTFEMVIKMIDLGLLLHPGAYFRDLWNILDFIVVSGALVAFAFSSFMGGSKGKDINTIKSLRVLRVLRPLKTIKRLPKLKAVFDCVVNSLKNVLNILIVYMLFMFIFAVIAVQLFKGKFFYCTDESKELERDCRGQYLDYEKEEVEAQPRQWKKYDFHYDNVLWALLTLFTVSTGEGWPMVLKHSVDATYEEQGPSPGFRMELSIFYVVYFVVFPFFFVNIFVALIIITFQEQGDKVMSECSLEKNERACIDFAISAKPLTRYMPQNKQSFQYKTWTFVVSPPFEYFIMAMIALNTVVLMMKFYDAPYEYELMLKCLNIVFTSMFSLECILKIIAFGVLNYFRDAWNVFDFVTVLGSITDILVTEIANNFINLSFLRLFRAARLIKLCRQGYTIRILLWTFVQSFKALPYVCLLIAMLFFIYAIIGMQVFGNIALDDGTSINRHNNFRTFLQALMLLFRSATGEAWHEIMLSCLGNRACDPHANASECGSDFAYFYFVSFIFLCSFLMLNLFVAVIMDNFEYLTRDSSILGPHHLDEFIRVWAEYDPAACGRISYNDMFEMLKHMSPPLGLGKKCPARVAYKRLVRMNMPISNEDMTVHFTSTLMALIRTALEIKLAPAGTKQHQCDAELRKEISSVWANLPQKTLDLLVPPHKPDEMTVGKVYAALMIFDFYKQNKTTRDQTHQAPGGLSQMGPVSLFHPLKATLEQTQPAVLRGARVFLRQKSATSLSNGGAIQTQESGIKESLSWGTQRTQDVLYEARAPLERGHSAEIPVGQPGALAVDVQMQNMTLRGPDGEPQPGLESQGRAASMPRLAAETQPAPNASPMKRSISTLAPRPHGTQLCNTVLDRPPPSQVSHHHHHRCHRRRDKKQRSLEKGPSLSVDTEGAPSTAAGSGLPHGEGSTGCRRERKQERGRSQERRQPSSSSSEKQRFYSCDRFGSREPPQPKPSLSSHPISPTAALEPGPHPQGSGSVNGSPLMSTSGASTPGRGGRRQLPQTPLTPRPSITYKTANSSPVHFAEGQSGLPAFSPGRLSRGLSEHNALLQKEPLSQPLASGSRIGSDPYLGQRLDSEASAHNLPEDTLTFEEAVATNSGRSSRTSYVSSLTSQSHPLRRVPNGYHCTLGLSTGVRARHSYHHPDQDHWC

As for “β3-core tagged with the CFP 159–238 fragment (from UniProt P54287 16-366) (domain or fragment)”, the median ratio of cyan (BiFC) to red fluorescence in assay [1] was 0.77; in assay [2], 0.32; in assay [3] it was 0.23.
